Measured values as given in patent US20170101472A1 (Regeneron, published 2017).

T1: human LAG3 expressed on HEK293 cells (human, UniProt P18627 23-525)
T1 construct: also called hLAG3; HEK293/hLAG3
T1 sequence: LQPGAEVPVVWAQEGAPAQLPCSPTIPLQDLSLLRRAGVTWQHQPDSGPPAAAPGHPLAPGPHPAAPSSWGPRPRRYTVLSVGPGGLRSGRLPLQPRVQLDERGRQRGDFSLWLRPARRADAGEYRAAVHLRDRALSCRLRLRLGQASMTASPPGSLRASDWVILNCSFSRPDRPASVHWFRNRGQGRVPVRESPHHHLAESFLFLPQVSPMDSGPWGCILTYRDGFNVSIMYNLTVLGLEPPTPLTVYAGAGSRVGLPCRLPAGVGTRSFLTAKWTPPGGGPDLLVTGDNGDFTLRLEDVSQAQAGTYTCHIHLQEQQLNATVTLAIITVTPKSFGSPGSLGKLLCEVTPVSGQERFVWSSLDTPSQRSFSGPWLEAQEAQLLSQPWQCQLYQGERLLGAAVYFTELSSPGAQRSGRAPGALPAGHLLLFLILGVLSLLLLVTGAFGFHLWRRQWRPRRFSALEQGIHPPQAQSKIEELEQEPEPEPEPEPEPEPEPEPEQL

T2: recombinant human LAG3 expressed with a C-terminal mouse IgG2a mFc tag (human)
T2 construct: Called dimeric; also called hLAG3-mFc; hLAG3 dimer
T2 chain: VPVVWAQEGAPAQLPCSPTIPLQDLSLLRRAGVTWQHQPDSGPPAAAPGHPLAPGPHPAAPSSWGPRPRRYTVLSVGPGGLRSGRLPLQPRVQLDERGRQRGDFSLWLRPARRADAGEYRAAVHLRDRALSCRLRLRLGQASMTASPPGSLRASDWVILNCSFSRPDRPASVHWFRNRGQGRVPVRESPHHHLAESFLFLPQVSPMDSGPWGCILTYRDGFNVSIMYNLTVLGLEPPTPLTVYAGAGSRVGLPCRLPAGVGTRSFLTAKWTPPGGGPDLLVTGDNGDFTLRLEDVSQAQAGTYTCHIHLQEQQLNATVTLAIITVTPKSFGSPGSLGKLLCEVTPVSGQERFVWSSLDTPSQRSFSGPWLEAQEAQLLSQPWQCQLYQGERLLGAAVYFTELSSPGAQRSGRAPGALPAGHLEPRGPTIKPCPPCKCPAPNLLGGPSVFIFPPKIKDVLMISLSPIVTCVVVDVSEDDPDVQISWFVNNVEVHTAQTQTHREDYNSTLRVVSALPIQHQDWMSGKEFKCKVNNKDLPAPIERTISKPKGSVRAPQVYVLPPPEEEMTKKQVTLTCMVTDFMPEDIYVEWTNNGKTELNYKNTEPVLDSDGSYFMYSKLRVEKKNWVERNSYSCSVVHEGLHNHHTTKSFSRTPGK


Experiments:
[1] = biological target: T1, human LAG3 expressed on HEK293 cells; assay: electrochemiluminescence cell binding, HEK293-hLAG3
Experimental: (§1) To investigate the ability of a panel of anti-LAG3 monoclonal antibodies to bind cell-surface expressed LAG3, an in vitro binding assay utilizing human and monkey LAG3 expressing cell lines in an electrochemiluminescence based detection platform [Meso Scale Diagnostics, Rockville, Md.—(MSD)] was developed.
(§2) Experiments were carried out according to following procedure. Cells from the three cell lines described above were rinsed once in 1×PBS buffer without Ca²⁺/Mg²⁺ followed by 10-minute incubation at 37° C. with Enzyme Free Cell Dissociation Solution. […] Approximately 10,000 cells per well in the cell-washing buffer were seeded into the 96-well carbon electrode plates (MULTI-ARRAY high bind plate, MSD) and incubated for 1 hour at 37° C. to allow the cells to adhere. Nonspecific binding sites were blocked by 2% BSA (w/v) in PBS for 1 hour at room temperature. […] The plates were then washed to remove the unbound antibodies using an AquaMax2000 plate washer (MDS Analytical Technologies). The plate-bound antibodies were detected with a SULFO-TAG™-conjugated anti-human IgG antibody (MSD) for 1 hour at room temperature. After washes, the plates were developed with the Read Buffer (MSD) according to manufacturer's recommended procedure and the luminescent signals were recorded with a SECTOR Imager 6000 (MSD) instrument. The direct binding signals (in relative light units—RLU) were analyzed as a function of the antibody concentration and the data were fitted with a sigmoidal (four-parameter logistic) dose-response model using Graph Pad Prism™ software. The potency of each antibody was determined by calculating EC₅₀.

[2] = biological target: T3, recombinant human LAG3 expressed with a C-terminal myc-myc-hexahistidine tag (human, UniProt P18627 29-450); assay: SPR, mAb captured, 37 C
T3 construct: also called hLAG3-mmh; hLAG3.mmh
Experimental: (§3) The BiaCore sensor surface was derivatized with either a polyclonal rabbit anti-mouse antibody (GE, # BR-1008-38) or with a monoclonal mouse anti-human Fc antibody (GE, # BR-1008-39) to capture approximately 50-85 RUs of anti-LAG3 monoclonal antibodies, expressed with either a mouse Fc or a human Fc, respectively. […] The binding of the LAG3 reagents to captured monoclonal antibodies was monitored for 4 minutes while their dissociation from the antibodies was monitored for 8 minutes in HBST running buffer (0.01 M HEPES pH 7.4, 0.15 M NaCl, 3 mM EDTA, 0.05% v/v Surfactant P20). Experiments were performed at 25° C. and 37° C. Kinetic association (kₐ) and dissociation (kd) rate constants were determined by processing and fitting the data to a 1:1 binding model using Scrubber 2.0c curve fitting software. Binding dissociation equilibrium constants (KD) and dissociative half-lives (t_{1/2}) were then calculated from the kinetic rate constants as: KD (M)=kd/kₐ and t_{1/2} (min)=[ln2/(60*kd)].

[3] = biological target: T2, recombinant human LAG3 expressed with a …; assay: SPR, mAb captured, 37 C
Experimental: as §3

[4] = biological target: T1, human LAG3 expressed on HEK293 cells; assay: electrochemiluminescence cell binding
Experimental: as §1, §2

Row | Binder | EC50 [1] [nM] | Kd [2] [nM] | koff [2] [s⁻¹] | kon [2] [M⁻¹ s⁻¹] | t1/2 [2] [min] | Kd [3] [nM] | koff [3] [s⁻¹] | kon [3] [M⁻¹ s⁻¹] | t1/2 [3] [min] | Ratio of 100 nM antibody binding HEK293-hLAG3 to HEK293 cells [4]
1 | H4H14813N (antibody, human IgG4, V domains shown, H4H = human IgG4 Fc with S108P hinge mutation) VH: QVQLQQWGAGLLKPSETLSLTCAVYGGSFSGYYWNWIRQPPGKGLEWVGEISHRGSTNYNPSLKSRVTISLDTSKNQFSLKLTSVTAADTAVYYCSRDEELEFRFFDYWGQGTLVTVSS VL: EIVLTQSPATLSLSPGERATLSCRASQSVSSYLAWYQQKPGQAPRLLVYGASNRATGIPARFSGSGSGTDFTLTISSLEPEDFAFYYCQQRSNWPLTFGGGTKVEIK | 19.9 | 0.284 | 0.000152 | 535000 | 76 | 0.0274 | 0.000117 | 4.27e+06 | 98.8 | 8.9
2 | H4sH15479P (antibody, V domains shown) VH: QVQLQQWGAGLLNPSETLSLTCAVYGGAFSDYYWNWIRQPPGKGLEWIGEINHRGSTNYNPSLKSRVTISVDTSKNQFSLRMSSVTAADAAVYYCARGEDYDIWNGYYQEKWGQGTLVTVSS VL: EIVLTQSPATLSLSPGERATLSCRASQSISTYLAWYQQKPGQAPRLLIYDASKRATGIPARFSGSGSGTDFTLTISSLEPEDFVVYYCHQRSNWPLTFGGGTKVEIK | 13.4 | 0.0341 | 4.24e-05 | 1.24e+06 | 272 | 0.00342 | 1e-05 | 2.92e+06 | ≥ 1160 | 17.8
3 | H4H15483P (antibody, human IgG4, V domains shown, H4H = human IgG4 Fc with S108P hinge mutation) VH: QVQLQQWGAGLLPPSETLSLICAVYGGSFSGYYWSWIRQPPGKGLEWIGEINHRGSTNYNPSLKSRATISVDTSKNQFSLKLSSVTAADTAVYYCSRGEDYYDSSGYSYYFDYWGQGTLVTVSS VL: EIVLTQSPATLSLSPGERATLSCRASQSVSSYLAWYQQKPGQAPRLLIYDASNRATGIPARFSGSGSGTDFTLTISSLEPEDFAVYYCQQRSNWPLTFGGGTKVEIK | 17.2 | 1.43 | 0.00111 | 774000 | 10.4 | 0.215 | 0.000298 | 1.38e+06 | 38.8 | 6.6
4 | H4H15462P (antibody, human IgG4, V domains shown, H4H = human IgG4 Fc with S108P hinge mutation) VH: QVQLVQSGAEVKKPGASVKVSCKASGYTFTNYYIHWVRQAPGQGLDWMGIINPGGGNTNYAQKFLGRVTMTRDTSTTTVYMELSSLRSEDTAIYYCARENWNSYFDNWGQGTLVTVSS VL: not shown | 6.85 | 5.8 | 0.00626 | 1.08e+06 | 1.8 | 0.415 | 0.000895 | 2.16e+06 | 12.9 | 2.3
5 | H4H17826P2 (antibody, human IgG4, V domains shown, H4H = human IgG4 Fc with S108P hinge mutation) VH: EVQLVESGGGLVQPGGSLRLSCAASGFTFSSYEMNWVRQAPGKGLEWVSYISSSGNTKDYAGSVKGRVTISRDNAKNLLYLQMNSLRAEDTAVYHCARDGGHYDILTGSMSYYYYALDVWGQGTTVTVSS VL: not shown | 3.48 | 1.99 | 0.00214 | 1.07e+06 | 5.4 | 0.277 | 0.000547 | 1.98e+06 | 21.1 | 7

These reach a lower EC50 [1]. Values come first.

Row | EC50 [1] [nM] | Kd [2] [nM] | koff [2] [s⁻¹] | kon [2] [M⁻¹ s⁻¹] | t1/2 [2] [min] | Kd [3] [nM] | koff [3] [s⁻¹] | kon [3] [M⁻¹ s⁻¹] | t1/2 [3] [min] | Ratio of 100 nM antibody binding HEK293-hLAG3 to HEK293 cells [4] | Binder
6 | 0.69 | 0.552 | 0.000876 | 1.59e+06 | 13.2 | 0.317 | 0.000527 | 1.66e+06 | 21.9 | 22.7 | H4H17819P (antibody, human IgG4, V domains shown, H4H = human IgG4 Fc with S108P hinge mutation) VH: EVQLVESGGGLVQPGGSLRLSCVASGFTFSLYAMTWVRQVPGKGLEWVSTISGSGGGTYYTDSVKGRFTISRDNSKNTLYLQMNSLRADDTAVFYCTKESTTGTYSYFYGMDVWGQGTTVTVSS VL: DIQMTQSPSSLSASVGDRVTITCRASQTISSYLNWYQQKPGKAPKLLIYAASSLQSGVPSRFSGSGSGTDFTLTLSGLQPEDFATYYCQQSYSTPLTFGGGTKVEIK
7 | 1.5 | 0.524 | 0.000924 | 1.76e+06 | 12.5 | 0.437 | 0.000585 | 1.34e+06 | 19.7 | 5.3 | H4H17823P (antibody, human IgG4, V domains shown, H4H = human IgG4 Fc with S108P hinge mutation) VH: EVQLLESGGGLVQPGGSLRLSCAASGFTFRSYAMSWVRQAPGKGLEWVSVISGGGGRTYYTDSVKGRFTISRDNSKSMLYLQMNSLRAEDTAIYYCAKERVTGIDHYYYGVDVWGQGTTVTVSS VL: DIQMTQSPSSLSASVGDRVTITCRASQSISSYLNWYQQKPGKAPKLLIYATSSLQSGVPSRFSGSASGTDFTLAISSLQPEDFATYYCQQSYTTPLTFGGGTKVEIK
8 | 1.2 | 1.89 | 0.00207 | 1.1e+06 | 5.6 | 0.415 | 0.000718 | 1.73e+06 | 16.1 | 8.7 | H4H17828P2 (antibody, human IgG4, V domains shown, H4H = human IgG4 Fc with S108P hinge mutation) VH: EVQLVESGGGLVQPGGSLRLSCAASGFTFKTYAMSWVRQAPGRGLEWVSGISGSGSTSYYADSVKGRFTISRDNYKKTLSLQMNSLRAEDTAVYYCALDIMATVGGLFNNWGQGTLVTVSS VL: not shown
9 | 0.853 | 7.66 | 0.00772 | 1.01e+06 | 1.5 | 0.876 | 0.00157 | 1.8e+06 | 7.3 | 6.8 | H4sH15462P (antibody, V domains shown, H4sH = human IgG4 Fc with 2 or more amino acid changes as disclosed in US20140243504) VH: QVQLVQSGAEVKKPGASVKVSCKASGYTFTNYYIHWVRQAPGQGLDWMGIINPGGGNTNYAQKFLGRVTMTRDTSTTTVYMELSSLRSEDTAIYYCARENWNSYFDNWGQGTLVTVSS VL: not shown
